Results on five molecules are retold here after EP1230350B1, “SITE-DIRECTED MUTAGENESIS OF ESCHERICHIA COLI PHYTASE” (CORNELL RESEARCH FOUNDATION, INC., priority 1999, dated 2001).

Marks after values point to notes of the source that are not given here.

What all share (test): Enzyme kinetics of acid phosphatase/phytase (pNPP and sodium phytate as substrates)
Data set [1] deals with T1, Escherichia coli acid phosphatase/phytase (appA) Mutant U (construct E2P2P3K2: C200N, D207N, S211N), SEQ. ID. No. 3, expressed in Pichia pastoris (Escherichia coli, UniProt P07102, C200N/D207N/S211N).
T1 construct: The coding region starts at the codon 20 and ends at the codon 432; alpha-factor secretion leader of vector pPICZαA (own knowledge of the vector); made in house; host or cells: Pichia pastoris X33
T1 sequence (P07102 20-432 C200N/D207N/S211N): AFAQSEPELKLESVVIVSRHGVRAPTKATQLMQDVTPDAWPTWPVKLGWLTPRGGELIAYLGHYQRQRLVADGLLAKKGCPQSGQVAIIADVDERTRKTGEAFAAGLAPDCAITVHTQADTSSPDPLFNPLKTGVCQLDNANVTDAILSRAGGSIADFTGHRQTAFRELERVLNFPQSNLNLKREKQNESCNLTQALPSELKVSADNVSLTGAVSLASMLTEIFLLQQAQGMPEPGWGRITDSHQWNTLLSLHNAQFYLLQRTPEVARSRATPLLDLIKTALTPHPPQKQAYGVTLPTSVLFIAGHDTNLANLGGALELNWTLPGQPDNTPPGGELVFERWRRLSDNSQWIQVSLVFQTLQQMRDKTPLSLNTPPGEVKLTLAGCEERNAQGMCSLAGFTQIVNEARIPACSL
The format is biochemical. As for the experimental part:
The expressed r-AppA and mutant enzymes in the medium supernatant were subjected to a two-step ammonium sulfate precipitation (25% and 75%) as previously described (Rodriguez, E. et al., Biochem. Biophys. Res. Commun. 257:117-23 (1999)). The suspension of the first round was centrifuged at 4°C, 25,000 x g for 20 min. The pellet of the second round was suspended in 10 ml and dialyzed overnight against 25 mM Tris-HCl, pH 7. After dialysis, the protein extract was loaded onto a DEAE (diethylaminoethyl)-Sepharose column (Sigma, St. Louis, MO) equilibrated with 25 mM Tris-HCl, pH 7. The bound protein was eluted with 1 M NaCl in 25 mM Tris-CH1, pH 7. […] Phytase activity was measured using sodium phytate as the substrate (Rodriguez, E. et al., Biochem. Biophys. Res. Commun. 257:117-23 (1999); Piddington, C.S. et al., Gene 133:55-62 (1993)). […] Free inorganic phosphorus was measured at 820 nm after 0.2 ml of the sample was mixed with 1.8 ml of H2O and 2 ml of a solution containing 0.6 M H2SO4, 2% ascorbic acid, and 0.5% ammonium molybdate, followed by incubation for 20 min at 50°C. […] The released p-nitrophenol was measured at 405 nm after 0.1 ml of the sample was mixed with 0.9 ml of 1 M NaOH and incubated for 10 min. […] After the samples were cooled on ice for 30 min, their remaining phytase activies were measured as described above. […]

Substrate in data set [2]: O=[N+]([O-])c1ccc(OP(=O)(O)O)cc1
The format is biochemical, Escherichia coli. Conditions: 0.25 M glycine-HCl, pH 2.5, 37°C, Lineweaver-Burk plot. As for the experimental part:
(§1) The expressed r-AppA and mutant enzymes in the medium supernatant were subjected to a two-step ammonium sulfate precipitation (25% and 75%) as previously described (Rodriguez, E. et al., Biochem. Biophys. Res. Commun. 257:117-23 (1999)). The suspension of the first round was centrifuged at 4°C, 25,000 x g for 20 min. The pellet of the second round was suspended in 10 ml and dialyzed overnight against 25 mM Tris-HCl, pH 7. After dialysis, the protein extract was loaded onto a DEAE (diethylaminoethyl)-Sepharose column (Sigma, St. Louis, MO) equilibrated with 25 mM Tris-HCl, pH 7. The bound protein was eluted with 1 M NaCl in 25 mM Tris-CH1, pH 7. […] Phytase activity was measured using sodium phytate as the substrate (Rodriguez, E. et al., Biochem. Biophys. Res. Commun. 257:117-23 (1999); Piddington, C.S. et al., Gene 133:55-62 (1993)). The enzyme was diluted in 0.25 M glycine-HCl, pH 2.5, and an equal volume of substrate solution containing 11 mM sodium phytate (Sigma) was added. After incubation of the sample for 15 min at 37°C, the reaction was stopped by addition of an equal volume of 15% trichloroacetic acid. Free inorganic phosphorus was measured at 820 nm after 0.2 ml of the sample was mixed with 1.8 ml of H2O and 2 ml of a solution containing 0.6 M H2SO4, 2% ascorbic acid, and 0.5% ammonium molybdate, followed by incubation for 20 min at 50°C. One phytase unit was defined as the amount of activity that releases 1 µmol of inorganic phosphorus from sodium phytate per minute at 37°C. The final concentrations of sodium phytate used for the enzyme kinetics were: 0.1, 0.25, 0.5, 0.75, 1, 2.5, 10, and 25 mM. Acid phosphatase activity was assayed using pNPP (Sigma) at a final concentration of 25 mM (Smith, R. et al., Protein Engineerine 5:35-41 (1992)). To 50 µl of enzyme (40 nmol), 850 µl of 250 mM glycine-HCl, pH 2.5, were added. After 5 min of incubation at 37°C, 100 µl of pNPP was added. The released p-nitrophenol was measured at 405 nm after 0.1 ml of the sample was mixed with 0.9 ml of 1 M NaOH and incubated for 10 min. The final concentrations ofpNPP used for the enzyme kinetics were: 0.1, 0.2, 0.75, 1, 2.5, 10, and 25 mM. One unit of acid phosphatase/phytase activity was defined as the amount of enzyme catalyzing the formation of 1 µmol of p-nitrophenol per minute. Before the thermostability assay, the enzyme (2 mg/ml) was diluted 1:400 in 0.2 M glycine-HCl, pH 2.5. The diluted samples were incubated for 15 min at 25, 55, 80, and 90°C. After the samples were cooled on ice for 30 min, their remaining phytase activies were measured as described above. Deglycosylation of purified enzymes was done by incubating 100 µg of total protein with 0.5 IU endoglycosidase Hf (Endo Hf) for 4 h at 37°C according to the manufacturer's instructions (New England Biolabs, Beverly, MA). Sodium dodecyl sulfate-polyacrylamide gel electrophoresis (SDS-PAGE), 15% (w/v) gel was performed as previously described (Laenunli, U.K., Nature 227:680-85 (1970)). Protein concentrations were determined using the Lowry method (Lowry, O.H. et al., J. Biol. Chem. 193:265-75 (1951)).
(§2) The Km value for pNPP (p-nitrophenyl phosphate) was reduced by one-half and the one for sodium phytate by 70% with Mutant U, versus r-AppA (P < 0.05) (Table 4).

Substrate in data set [3]: O=P(O)(O)OC1C(OP(=O)(O)O)C(OP(=O)(O)O)C(OP(=O)(O)O)C(OP(=O)(O)O)C1OP(=O)(O)O
The format is biochemical, Escherichia coli. Conditions: 0.25 M glycine-HCl, pH 2.5, 37°C, Lineweaver-Burk plot. As for the experimental part: as §1, §2

As for `O=P(O)(O)O[C@H]1[C@H](OP(=O)(O)O)[C@@H](OP(=O)(O)O)[C@H](OP(=O)(O)O)[C@@H](OP(=O)(O)O)[C@H]1OP(=O)(O)O` [Na-Phytate, sodium phytate], the “increase in apparent catalytic efficiency kcat/Km for sodium phytate than that of r-AppA” value in data set [1] (Mutant U versus r-AppA) came out at 5.2 fold. The “Km value for sodium phytate reduced, versus r-AppA” value in data set [1] (Mutant U versus r-AppA (P < 0.05)) turned out to be 70%.

B1: Escherichia coli acid phosphatase/phytase (appA) Mutant Y (construct E2A1P2P3K2: A131N, V134N, C200N, D207N, S211N), expressed in Pichia pastoris (Escherichia … (protein)
chain: AFAQSEPELKLESVVIVSRHGVRAPTKATQLMQDVTPDAWPTWPVKLGWLTPRGGELIAYLGHYQRQRLVADGLLAKKGCPQSGQVAIIADVDERTRKTGEAFAAGLAPDCNITNHTQADTSSPDPLFNPLKTGVCQLDNANVTDAILSRAGGSIADFTGHRQTAFRELERVLNFPQSNLNLKREKQNESCNLTQALPSELKVSADNVSLTGAVSLASMLTEIFLLQQAQGMPEPGWGRITDSHQWNTLLSLHNAQFYLLQRTPEVARSRATPLLDLIKTALTPHPPQKQAYGVTLPTSVLFIAGHDTNLANLGGALELNWTLPGQPDNTPPGGELVFERWRRLSDNSQWIQVSLVFQTLQQMRDKTPLSLNTPPGEVKLTLAGCEERNAQGMCSLAGFTQIVNEARIPACSL
notes: The coding region starts at the codon 20 and ends at the codon 432; alpha-factor secretion leader of vector pPICZαA (own knowledge of the vector); made in house; host or cells: Pichia pastoris X33
One may read the Km as the concentration of substrate that gives half-maximal velocity. Broadly, the kcat is the maximal rate divided by the concentration of active sites. For the molecule B1, in data set [2] (other: Mutant Y), the Km came to 3180 ± 390 µM, the turnover number (kcat) was found to be 787 ± 6.7 min⁻¹ and the kcat/Km result is listed as “(2.5 ± 0.17) x 10^5 min^-1 M^-1”. In data set [3] (other: Mutant Y), the Km was 2030 ± 190 µM, the kcat is 3431 ± 41^* min^-1 and the kcat/Km result is recorded as “(1.69 ± 0.21) x 10^6* min^-1 M^-1”.

B2: Escherichia coli acid phosphatase/phytase (appA) Mutant U (construct E2P2P3K2: C200N, D207N, S211N), SEQ. ID. No. 3, expressed in Pichia pastoris (Escherichia … (protein)
chain: AFAQSEPELKLESVVIVSRHGVRAPTKATQLMQDVTPDAWPTWPVKLGWLTPRGGELIAYLGHYQRQRLVADGLLAKKGCPQSGQVAIIADVDERTRKTGEAFAAGLAPDCAITVHTQADTSSPDPLFNPLKTGVCQLDNANVTDAILSRAGGSIADFTGHRQTAFRELERVLNFPQSNLNLKREKQNESCNLTQALPSELKVSADNVSLTGAVSLASMLTEIFLLQQAQGMPEPGWGRITDSHQWNTLLSLHNAQFYLLQRTPEVARSRATPLLDLIKTALTPHPPQKQAYGVTLPTSVLFIAGHDTNLANLGGALELNWTLPGQPDNTPPGGELVFERWRRLSDNSQWIQVSLVFQTLQQMRDKTPLSLNTPPGEVKLTLAGCEERNAQGMCSLAGFTQIVNEARIPACSL
notes: as for B1
As for B2, in data set [2] (other: Mutant U), the Km came out at 1860 ± 35000 µM, the kcat is listed as 1073 ± 13^* min^-1 and the kcat/Km result was “(5.8 ± 0.37) x 10^5* min^-1 M^-1”. In data set [3] (other: Mutant U), the Michaelis constant (Km) came to 580 ± 80 µM, the kcat is 4003 ± 56^* min^-1 and the kcat/Km result was “(6.90 ± 0.70) x 10^6* min^-1 M^-1”.

B3: Escherichia coli acid phosphatase/phytase (appA), wild type r-AppA, SEQ. ID. No. 1, expressed in Pichia pastoris (Escherichia coli K-12) (protein)
chain: AFAQSEPELKLESVVIVSRHGVRAPTKATQLMQDVTPDAWPTWPVKLGWLTPRGGELIAYLGHYQRQRLVADGLLAKKGCPQSGQVAIIADVDERTRKTGEAFAAGLAPDCAITVHTQADTSSPDPLFNPLKTGVCQLDNANVTDAILSRAGGSIADFTGHRQTAFRELERVLNFPQSNLCLKREKQDESCSLTQALPSELKVSADNVSLTGAVSLASMLTEIFLLQQAQGMPEPGWGRITDSHQWNTLLSLHNAQFYLLQRTPEVARSRATPLLDLIKTALTPHPPQKQAYGVTLPTSVLFIAGHDTNLANLGGALELNWTLPGQPDNTPPGGELVFERWRRLSDNSQWIQVSLVFQTLQQMRDKTPLSLNTPPGEVKLTLAGCEERNAQGMCSLAGFTQIVNEARIPACSL
notes: as for B1
For B3, in data set [2] (other: r-AppA), the Km came to 3660 ± 440 µM, the catalytic constant (kcat) amounted to 752 ± 7.9 min⁻¹ and the kcat/Km entry is listed as “(2.0 ± 0.18) x 10^5 min^-1 M^-1”. Further, in data set [3] (other: r-AppA), the Michaelis-Menten constant (Km) is 1950 ± 250 µM, the kcat was 2148 ± 33 min⁻¹ and the kcat/Km result is reported as “(1.11 ± 0.13) x 10^6 min^-1 M^-1”.

B4: Escherichia coli acid phosphatase/phytase (appA) Mutant R (construct E2A1P3K2: A131N, V134N, D207N, S211N), expressed in Pichia pastoris (Escherichia coli … (protein)
chain: AFAQSEPELKLESVVIVSRHGVRAPTKATQLMQDVTPDAWPTWPVKLGWLTPRGGELIAYLGHYQRQRLVADGLLAKKGCPQSGQVAIIADVDERTRKTGEAFAAGLAPDCNITNHTQADTSSPDPLFNPLKTGVCQLDNANVTDAILSRAGGSIADFTGHRQTAFRELERVLNFPQSNLCLKREKQNESCNLTQALPSELKVSADNVSLTGAVSLASMLTEIFLLQQAQGMPEPGWGRITDSHQWNTLLSLHNAQFYLLQRTPEVARSRATPLLDLIKTALTPHPPQKQAYGVTLPTSVLFIAGHDTNLANLGGALELNWTLPGQPDNTPPGGELVFERWRRLSDNSQWIQVSLVFQTLQQMRDKTPLSLNTPPGEVKLTLAGCEERNAQGMCSLAGFTQIVNEARIPACSL
notes: as for B1
With B4, in data set [2] (other: Mutant R), the Km came to 7870 ± 840 µM, the kcat is listed as 390 ± 5.9^* min^-1 and the kcat/Km entry is listed as “(0.5 ± 0.07) x 10^5* min^-1 M^-1”. Moreover, in data set [3] (other: Mutant R), the Km was 3070 ± 260 µM, the turnover number (kcat) is 1657 ± 23^* min^-1 and the kcat/Km result is recorded as “(0.54 ± 0.09) x 10^6* min^-1 M^-1”.
